Conditions in all cases: nanopore translocation; background mutations not given
Data set [1] deals with T1, Dda 1993 K177E K177E (Enterobacteria phage T4) (UniProt P32270).
T1 sequence: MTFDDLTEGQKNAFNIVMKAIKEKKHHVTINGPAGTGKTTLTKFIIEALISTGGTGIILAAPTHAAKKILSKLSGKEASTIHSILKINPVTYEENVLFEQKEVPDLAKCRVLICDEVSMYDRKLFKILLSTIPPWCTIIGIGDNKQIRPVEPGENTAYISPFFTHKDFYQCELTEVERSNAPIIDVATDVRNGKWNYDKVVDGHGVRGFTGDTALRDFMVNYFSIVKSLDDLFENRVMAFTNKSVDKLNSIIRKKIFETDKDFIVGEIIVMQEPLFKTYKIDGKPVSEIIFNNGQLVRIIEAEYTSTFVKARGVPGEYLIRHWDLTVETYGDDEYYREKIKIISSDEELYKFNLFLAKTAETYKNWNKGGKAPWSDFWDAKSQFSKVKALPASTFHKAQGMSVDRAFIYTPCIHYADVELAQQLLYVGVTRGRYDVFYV

For data set [2], the target named is T2, Dda 1993 K177F K177F (Enterobacteria phage T4) (UniProt P32270).
T2 sequence: T1 sequence with E177F

The target in data set [3] is T3, Dda 1993 K177H K177H (Enterobacteria phage T4) (UniProt P32270).
T3 sequence: T1 sequence with E177H

Data set [4] deals with T4, Dda 1993 K177T K177T (Enterobacteria phage T4) (UniProt P32270).
T4 sequence: T1 sequence with E177T

Data set [5] addresses T5, Dda 1993 K177Y K177Y (Enterobacteria phage T4) (UniProt P32270).
T5 sequence: T1 sequence with E177Y

Substitutions are numbered along the chain they refer to.

In the case of “barcoded 3.6 kb DNA analyte ligated to sequencing Y adaptor”, the activity (bps speed delta vs control) in data set [1] was 58.7; in data set [2], -33.4; in data set [3] it was 10.6; in data set [4] it was 22.6; in data set [5] it was -43.9.

The values above are taken from patent publication US20250382602.
